From PMC12599251, “Nitration-driven structural changes in Hsp90 linked to gain of pathological functions” (Biochemical Journal, 2025)

Target: the molecule itself
Experiment: AUC; sedimentation velocity, 42,000 rpm, 20°C, 11-15 uM protein, absorbance at 280 nm, continuous c(S) distribution (SEDFIT); peroxynitrite-treated samples dialyzed beforehand

Protein	stoichiometry N
Human Hsp90β with Y33 and Y56 replaced by phenylalanine (natural protein, Human Hsp90β, UniProtKB P08238, gene HSP90AB1; Y33 and Y56 replaced by nitration-resistant phenylalanine; also called Hsp90^F33-56; Hsp90^F33-F56; source: E. coli BL21-AI, purified (Ni-NTA, Sephacryl-300 SEC)) not shown	2
Human Hsp90β with Y33 and Y56 replaced by phenylalanine, treated with 0.5 mM peroxynitrite (natural protein, oxidised with 0.5 mM peroxynitrite; Y276, Y484 and Y596 are named as also prone to nitration, Human Hsp90β, UniProtKB P08238, gene HSP90AB1; Y33 and Y56 replaced by phenylalanine, oxidised in vitro with peroxynitrite; Peroxynitrite gives a mixed product; also called Hsp90^F33-56 + ONOO^-; Hsp90^F33-F56 + ONOO^-; source: E. coli BL21-AI, purified (Ni-NTA, Sephacryl-300 SEC), then treated with 0.5 mM peroxynitrite) not shown	2
